We go through one molecule from patent US20110239327A1, “Nematicidal Effects of Cysteine Proteinases and Methods of Use Thereof to Treat Nematode Infestation” (priority 2007, published 2011).

“Also recorded” adds a separate entry of the source.

Series [1] deals with Heterodera glycines J2. The series can be described thus: In vitro live/dead count of Heterodera glycines J2. To be noted: 250 μM active papain. It counts as cell-based. The procedure:
Eggs of M. incognita race 1 from North Carolina State University, USA were collected from tomato-infected roots grown in a glasshouse at 23° C. in a 16:8 h light-dark regime. Eggs were extracted using 1% hypochlorite (NaClO) solution (Hussey and Barker, 1973) or by picking egg masses from tomato-infected roots. Juveniles (J2) were hatched from the eggs and egg masses in water. Heterodera glycines eggs were obtained from soil samples stored in Rothamsted-Research. Second stage juveniles (J2) were hatched from the eggs in water after 10 days. Pratylenchus penetrans were a gift from Dr. Deeren Anne-Marie from the Institute for Agricultural and Fisheries Research, Merelbeke, Belgium. The beneficial nematodes Steinernema feltiae and Heterorhabditis megidis were a gift from Dr. Paul Williams from Becker Underwood.
Control wells were set up which contained J2s and distilled water with 16 mM L-cysteine. Each enzyme concentration and the controls were set up in duplicate (i.e. n=2). […] The number of live and dead J2s per well was counted after each enzyme incubation. The same procedure was followed when setting up further experiments to compare the effects of these enzymes with Heterodera glycines J2, Pratylenchus penetrans, Steinernema feltiae and Heterorhabditis megidis.

For series [2], the system named is G. rostochiensis J2s. As to the kind of experiment: In vitro mobility and cuticle damage of G. rostochiensis J2s. Format: cell-based, Globodera rostochiensis. The procedure:
Eggs of M. incognita race 1 from North Carolina State University, USA, and M. javanica from Portugal were collected from the roots of infected tomato plants grown in a glasshouse at 23° C. in a 16:8 h light-dark regime. Eggs were extracted using 1% hypochlorite (NaClO) solution (Hussey and Barker, 1973) or by picking egg masses from the infected roots. M. incognita and M. javanica were both used in the experiments and produced similar results. Juveniles (J2) were hatched from the eggs and egg masses in water. Globodera rostochiensis cysts were washed extensively in distilled water. Hatched J2s were obtained by incubating cysts in distilled water for 4 days followed by exposure to potato root diffusate (PRD).
Approximately 1000 J2s (second juvenile stage) of M. incognita or M. javanica were incubated per well of a 48-well plate with the following active enzyme concentrations (determined by E-64 titration) of papain dissolved in distilled water containing 16 mM L-cysteine (to activate the cysteine proteinase): 1.5 μM, 3 μM, 6.25 μM, 12.5 μM, 25 μM, 50 μM, 75 μM and 100 μM. […] The number of active J2s per well was counted prior to the addition of papain, and then the J2s were incubated in the dark at room temperature for 3 h. The number of mobile J2s per well was counted after 60, 120 and 180 mins. […]

Series [3] concerns M. incognita J2. The series can be described thus: In vitro assay of M. incognita J2 present in soil mixtures. Format: cell-based. The protocol: The same procedure described above was used to determine the effect of the cysteine proteinases against M. incognita J2 present in soil mixtures. The following soil mixtures were used: fine and coarse sand, peat and fine/coarse sand and loam mix and fine/coarse sand. These soil mixtures were prepared at concentrations of 1:1, 1:3 and 1:6 and autoclaved at […] for 20 min. Peat and loam-mix were obtained from Rothamsted-Research. Soil mixtures were added to 24 well plates (0.5 g) and wetted for 16 hs with either PBS ph 7.2, Tx-100, Milk 5% or cysteine proteinases, in order to wet the soil and block non-specific binding sites present in the soil particles. Then, approximately 100 J2 were added to the wells, followed by cysteine proteinases with 16 mM of L-cysteine to activate the cysteine proteinases or water as control. After 16 hs at room temperature in the dark, individual wells of the 24 well plates were flushed with 1 ml of distilled water to recover the nematodes from the soil mixtures. These were placed in a 24 well plate and the number of dead/live nematodes scored under microscopic observation.
These in vitro experiments were performed in 24 well plates using sterile soil mixtures to diminish the possibility of biological degradation of the enzyme by microorganisms. […] The number of live nematodes was counted before and after enzyme treatment. […]

B1: papain (protein, UniProt P00784 134-345, looked up)
Papain: IPEYVDWRQKGAVTPVKNQGSCGSCWAFSAVVTIEGIIKIRTGNLNEYSEQELLDCDRRSYGCNGGYPWSALQLVAQYGIHYRNTYPYEGVQRYCRSREKGPYAAKTDGVRQVQPYNEGALLYSIANQPVSVVLEAAGKDFQLYRGGIFVGPCGNKVDHAVAAVGYGPNYILIKNSWGTGWGENGYIRIKRGTGNSYGVCGLYTSSFYPVKN
notes: cysteine proteinase from Carica papaya, Merops C01.001, Sigma P3125
In the case of B1, the “state of the nematodes after incubation” value in series [1] (16 hs) is “dead”. For the same molecule, in series [1] (after 48 hs), the recovery result was “no recovery”. For the same molecule, the “mobility (proportion of active worms) of G. rostochiensis J2s” value in series [2] (25 μM active enzyme) is “reduction in mobility was significantly greater overall; also recorded: Reductions in the proportion of active worms were evident”. In addition, the “incubation needed before damage to the cuticle, compared to Meloidogyne spp.” value in series [2] (data not shown) is recorded as “needed longer incubation periods”. Moreover, the nematode mortality in series [3] (papain latex 100 μM, 16 hours, all soil mixtures (sand; 1:3 sand/loam mix; 1:3 sand/peat)) was 40-50%. In series [3] (soil with 16% organic matter wetted with 250 μM papain without L-cysteine, then 250 μM papain in 16 mM L-cysteine, 16 hs), the “state of the nematodes after two applications of papain to soil” value is “most nematodes were dead”.
